Earlier results on 1 substance are cited in publication PMC6558399.

In the series the target is Galectin-1 (Homo sapiens) (UniProt P09382).

What is called Kd is the free concentration of one partner at which half of the binding sites on the other are occupied at equilibrium, for simple one-to-one binding. As to Galectin-1 (from UniProt P09382), the Kd was 7 µM.
